Measurements as given in the supplement of paper PMC5998384.

How the values were obtained:
[1] = system: HeLa Kyoto; experiment: solubility change mitosis vs G1/S (difference of NP-40 vs SDS log2 ratios) (log2 ratio difference); higher = more soluble in mitosis
[2] = system: HeLa Kyoto; experiment: solubility in G1/S (NP-40 vs SDS abundance) (log2 ratio); higher = more soluble; settings: cell cycle stage: G1/S
[3] = system: HeLa Kyoto; experiment: melting temperature (median over replicates), in situ; higher = more thermally stable
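For melting temperature (median over replicates), in situ in this document: HeLa Kyoto cells synchronized by double thymidine or nocodazole block, proteins quantified by TMT10plex mass spectrometry, three independent biological replicates.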
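For solubility change mitosis vs G1/S (difference of NP-40 vs SDS log2 ratios) in this document: synchronized HeLa Kyoto cells (double thymidine block for G1/S, nocodazole release for mitosis), protein amounts in NP-40 versus SDS lysates quantified by mass spectrometry, three biological replicates.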
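For solubility in G1/S (NP-40 vs SDS abundance) in this document: HeLa Kyoto cells arrested at G1/S by double thymidine block, proteins quantified by TMT10plex mass spectrometry in mild NP-40 versus SDS extracts, three biological replicates.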

Row | Sequence | solubility change mitosis (log2) [1] | solubility in G1/S (log2) [2] | melting temperature ([3]; cell cycle stage: G1/S) | melting temperature ([3]; cell cycle stage: mitosis)
1 | MSSSSSSPRETYEEDREYESQAKRLKTEEGEIDYSAEEGENRREATPRGGGDGGGGGRSFSQPEAGGSHHKVSVSPVVHVRGLCESVVEADLVEALEKFGTICYVMMMPFKRQALVEFENIDSAKECVTFAADEPVYIAGQQAFFNYSTSKRITRPGNTDDPSGGNKVLLLSIQNPLYPITVDVLYTVCNPVGKVQRIVIFKRNGIQAMVEFESVLCAQKAKAALNGADIYAGCCTLKIEYARPTRLNVIRNDNDSWDYTKPYLGRRDRGKGRQRQAILGEHPSSFRHDGYGSHGPLLPLPSRYRMGSRDTPELVAYPLPQASSSYMHGGNPSGSVVMVSGLHQLKMNCSRVFNLFCLYGNIEKVKFMKTIPGTALVEMGDEYAVERAVTHLNNVKLFGKRLNVCVSKQHSVVPSQIFELEDGTSSYKDFAMSKNNRFTSAGQASKNIIQPPSCVLHYYNVPLCVTEETFTKLCNDHEVLTFIKYKVFDAKPSAKTLSGLLEWECKTDAVEALTALNHYQIRVPNGSNPYTLKLCFSTSSHL [HNRPLL] | -0.0114 | -0.0931 | 47.6 °C | 49.7 °C
2 | MTLIEGVGDEVTVLFSVLACLLVLALAWVSTHTAEGGDPLPQPSGTPTPSQPSAAMAATDSMRGEAPGAETPSLRHRGQAAQPEPSTGFTATPPAPDSPQEPLVLRLKFLNDSEQVARAWPHDTIGSLKRTQFPGREQQVRLIYQGQLLGDDTQTLGSLHLPPNCVLHCHVSTRVGPPNPPCPPGSEPGPSGLEIGSLLLPLLLLLLLLLWYCQIQYRPFFPLTATLGLAGFTLLLSLLAFAMYRP [TMUB1] | 0.143 | 0.566 | 51.6 °C | 52.5 °C
3 | MAQGWAGFSEEELRRLKQTKDPFEPQRRLPAKKSRQQLQREKALVEQSQKLGLQDGSTSLLPEQLLSAPKQRVNVQKPPFSSPTLPSHFTLTSPVGDGQPQGIESQPKELGLENSHDGHNNVEILPPKPDCKLEKKKVELQEKSRWEVLQQEQRLMEEKNKRKKALLAKAIAERSKRTQAETMKLKRIQKELQALDDMVSADIGILRNRIDQASLDYSYARKRFDRAEAEYIAAKLDIQRKTEIKEQLTEHLCTIIQQNELRKAKKLEELMQQLDVEADEETLELEVEVERLLHEQEVESRRPVVRLERPFQPAEESVTLEFAKENRKCQEQAVSPKVDDQCGNSSSIPFLSPNCPNQEGNDISAALAT [GORAB] | 0.118 | 0.431 |  | 50.9 °C
4 | MLDHKDLEAEIHPLKNEERKSQENLGNPSKNEDNVKSAPPQSRLSRCRAAAFFLSLFLCLFVVFVVSFVIPCPDRPASQRMWRIDYSAAVIYDFLAVDDINGDRIQDVLFLYKNTNSSNNFSRSCVDEGFSSPCTFAAAVSGANGSTLWERPVAQDVALVECAVPQPRGSEAPSACILVGRPSSFIAVNLFTGETLWNHSSSFSGNASILSPLLQVPDVDGDGAPDLLVLTQEREEVSGHLYSGSTGHQIGLRGSLGVDGESGFLLHVTRTGAHYILFPCASSLCGCSVKGLYEKVTGSGGPFKSDPHWESMLNATTRRMLSHSSGAVRYLMHVPGNAGADVLLVGSEAFVLLDGQELTPRWTPKAAHVLRKPIFGRYKPDTLAVAVENGTGTDRQILFLDLGTGAVLCSLALPSLPGGPLSASLPTADHRSAFFFWGLHELGSTSETETGEARHSLYMFHPTLPRVLLELANVSTHIVAFDAVLFEPSRHAAYILLTGPADSEAPGLVSVIKHKVRDLVPSSRVVRLGEGGPDSDQAIRDRFSRLRYQSEA [ITFG3] | 0.0404 | 0.275 | 57.6 °C | 57.1 °C
5 | MNRVNDPLIFIRDIKPGLKNLNVVFIVLEIGRVTKTKDGHEVRSCKVADKTGSITISVWDEIGGLIQPGDIIRLTRGYASMWKGCLTLYTGRGGELQKIGEFCMVYSEVPNFSEPNPDYRGQQNKGAQSEQKNNSMNSNMGTGTFGPVGNGVHTGPESREHQFSHAGRSNGRGLINPQLQGTASNQTVMTTISNGRDPRRAFKR [NABP1] | -0.222 | 0.0163 |  | 50.7 °C
6 | MASKGPSASASPENSSAGGPSGSSNGAGESGGQDSTFECNICLDTAKDAVISLCGHLFCWPCLHQWLETRPNRQVCPVCKAGISRDKVIPLYGRGSTGQQDPREKTPPRPQGQRPEPENRGGFQGFGFGDGGFQMSFGIGAFPFGIFATAFNINDGRPPPAVPGTPQYVDEQFLSRLFLFVALVIMFWLLIA [RNF185] | -0.146 | 0.352 | 53.4 °C | 
7 | MWHSVGLTLLVFVATLLIVLLLMVCGWYFVWHLFLSKFKFLRELVGDTGSQEGDHEPSGSETEEDTSSSPHRIRSARQRRAPADEGHRPLT [SMIM13] | -0.138 | -0.0724 | 55.5 °C | 
8 | MFVSDFRKEFYEVVQSQRVLLFVASDVDALCACKILQALFQCDHVQYTLVPVSGWQELETAFLEHKEQFHYFILINCGANVDLLDILQPDEDTIFFVCDTHRPVNVVNVYNDTQIKLLIKQDDDLEVPAYEDIFRDEEEDEEHSGNDSDGSEPSEKRTRLEEEIVEQTMRRRQRREWEARRRDILFDYEQYEYHGTSSAMVMFELAWMLSKDLNDMLWWAIVGLTDQWVQDKITQMKYVTDVGVLQRHVSRHNHRNEDEENTLSVDCTRISFEYDLRLVLYQHWSLHDSLCNTSYTAARFKLWSVHGQKRLQEFLADMGLPLKQVKQKFQAMDISLKENLREMIEESANKFGMKDMRVQTFSIHFGFKHKFLASDVVFATMSLMESPEKDGSGTDHFIQALDSLSRSNLDKLYHGLELAKKQLRATQQTIASCLCTNLVISQGPFLYCSLMEGTPDVMLFSRPASLSLLSKHLLKSFVCSTKNRRCKLLPLVMAAPLSMEHGTVTVVGIPPETDSSDRKNFFGRAFEKAAESTSSRMLHNHFDLSVIELKAEDRSKFLDALISLLS [CDC45] | -0.126 | -0.233 | 47.6 °C | 48.5 °C
9 | MLRRVTVAAVCATRRKLCEAGRELAALWGIETRGRCEDSAAARPFPILAMPGRNKAKSTCSCPDLQPNGQDLGENSRVARLGADESEEEGRRGSLSNAGDPEIVKSPSDPKQYRYIKLQNGLQALLISDLSNMEGKTGNTTDDEEEEEVEEEEEDDDEDSGAEIEDDDEEGFDDEDEFDDEHDDDLDTEDNELEELEERAEARKKTTEKQSAAALCVGVGSFADPDDLPGLAHFLEHMVFMGSLKYPDENGFDAFLKKHGGSDNASTDCERTVFQFDVQRKYFKEALDRWAQFFIHPLMIRDAIDREVEAVDSEYQLARPSDANRKEMLFGSLARPGHPMGKFFWGNAETLKHEPRKNNIDTHARLREFWMRYYSSHYMTLVVQSKETLDTLEKWVTEIFSQIPNNGLPRPNFGHLTDPFDTPAFNKLYRVVPIRKIHALTITWALPPQQQHYRVKPLHYISWLVGHEGKGSILSFLRKKCWALALFGGNGETGFEQNSTYSVFSISITLTDEGYEHFYEVAYTVFQYLKMLQKLGPEKRIFEEIRKIEDNEFHYQEQTDPVEYVENMCENMQLYPLQDILTGDQLLFEYKPEVIGEALNQLVPQKANLVLLSGANEGKCDLKEKWFGTQYSIEDIENSWAELWNSNFELNPDLHLPAENKYIATDFTLKAFDCPETEYPVKIVNTPQGCLWYKKDNKFKIPKAYIRFHLISPLIQKSAANVVLFDIFVNILTHNLAEPAYEADVAQLEYKLVAGEHGLIIRVKGFNHKLPLLFQLIIDYLAEFNSTPAVFTMITEQLKKTYFNILIKPETLAKDVRLLILEYARWSMIDKYQALMDGLSLESLLSFVKEFKSQLFVEGLVQGNVTSTESMDFLKYVVDKLNFKPLEQEMPVQFQVVELPSGHHLCKVKALNKGDANSEVTVYYQSGTRSLREYTLMELLVMHMEEPCFDFLRTKQTLGYHVYPTCRNTSGILGFSVTVGTQATKYNSEVVDKKIEEFLSSFEEKIENLTEEAFNTQVTALIKLKECEDTHLGEEVDRNWNEVVTQQYLFDRLAHEIEALKSFSKSDLVNWFKAHRGPGSKMLSVHVVGYGKYELEEDGTPSSEDSNSSCEVMQLTYLPTSPLLADCIIPITDIRAFTTTLNLLPYHKIVK [NRD1] | -0.188 | 0.116 | 50.5 °C | 50.9 °C
10 | MAQVLHVPAPFPGTPGPASPPAFPAKDPDPPYSVETPYGYRLDLDFLKYVDDIEKGHTLRRVAVQRRPRLSSLPRGPGSWWTSTESLCSNASGDSRHSAYSYCGRGFYPQYGALETRGGFNPRVERTLLDARRRLEDQAATPTGLGSLTPSAAGSTASLVGVGLPPPTPRSSGLSTPVPPSAGHLAHVREQMAGALRKLRQLEEQVKLIPVLQVKLSVLQEEKRQLTVQLKSQKFLGHPTAGRGRSELCLDLPDPPEDPVALETRSVGTWVRERDLGMPDGEAALAAKVAVLETQLKKALQELQAAQARQADPQPQAWPPPDSPVRVDTVRVVEGPREVEVVASTAAGAPAQRAQSLEPYGTGLRALAMPGRPESPPVFRSQEVVETMCPVPAAATSNVHMVKKISITERSCDGAAGLPEVPAESSSSPPGSEVASLTQPEKSTGRVPTQEPTHREPTRQAASQESEEAGGTGGPPAGVRSIMKRKEEVADPTAHRRSLQFVGVNGGYESSSEDSSTAENISDNDSTENEAPEPRERVPSVAEAPQLRPAGTAAAKTSRQECQLSRESQHIPTAEGASGSNTEEEIRMELSPDLISACLALEKYLDNPNALTERELKVAYTTVLQEWLRLACRSDAHPELVRRHLVTFRAMSARLLDYVVNIADSNGNTALHYSVSHANFPVVQQLLDSGVCKVDKQNRAGYSPIMLTALATLKTQDDIETVLQLFRLGNINAKASQAGQTALMLAVSHGRVDVVKALLACEADVNVQDDDGSTALMCACEHGHKEIAGLLLAVPSCDISLTDRDGSTALMVALDAGQSEIASMLYSRMNIKCSFAPMSDDESPTSSSAEE [KANK2] | -0.0916 | -0.0486 | 46.7 °C | 
11 | MDNRFATAFVIACVLSLISTIYMAASIGTDFWYEYRSPVQENSSDLNKSIWDEFISDEADEKTYNDALFRYNGTVGLWRRCITIPKNMHWYSPPERTESFDVVTKCVSFTLTEQFMEKFVDPGNHNSGIDLLRTYLWRCQFLLPFVSLGLMCFGALIGLCACICRSLYPTIATGILHLLAGLCTLGSVSCYVAGIELLHQKLELPDNVSGEFGWSFCLACVSAPLQFMASALFIWAAHTNRKEYTLMKAYRVA [CLDND1] | 0.186 | -0.395 |  | 58.6 °C
12 | MHRAPSPTAEQPPGGGDSARRTLQPRLKPSARAMALPRTLGELQLYRVLQRANLLSYYETFIQQGGDDVQQLCEAGEEEFLEIMALVGMATKPLHVRRLQKALREWATNPGLFSQPVPAVPVSSIPLFKISETAGTRKGSMSNGHGSPGEKAGSARSFSPKSPLELGEKLSPLPGGPGAGDPRIWPGRSTPESDVGAGGEEEAGSPPFSPPAGGGVPEGTGAGGLAAGGTGGGPDRLEPEMVRMVVESVERIFRSFPRGDAGEVTSLLKLNKKLARSVGHIFEMDDNDSQKEEEIRKYSIIYGRFDSKRREGKQLSLHELTINEAAAQFCMRDNTLLLRRVELFSLSRQVARESTYLSSLKGSRLHPEELGGPPLKKLKQEVGEQSHPEIQQPPPGPESYVPPYRPSLEEDSASLSGESLDGHLQAVGSCPRLTPPPADLPLALPAHGLWSRHILQQTLMDEGLRLARLVSHDRVGRLSPCVPAKPPLAEFEEGLLDRCPAPGPHPALVEGRRSSVKVEAEASRQ [NAB2] | -0.11 | 0.298 |  | 48.9 °C
